Tests used:
ORF57 8-120 [1] = biological target: T1, ORF57 8-120 (Herpesvirus saimiri, UniProt P13199 8-120); assay: NMR (HSQC titration, saturation transfer); aa64-120 broadened beyond detection at 1:1; Fluorescence: 20 mM phosphate pH 6.2, 50 mM NaCl, 50 mM L-Arg+L-Glu, 5 mM EDTA, 1 mM TCEP (temperature not stated); NMR: 20 mM phosphate pH 6.2, 50 mM NaCl, 50; conditions: protein: recombinant
ORF57 8-120 [2] = biological target: T1, ORF57 8-120; assay: intrinsic Trp fluorescence titration; Fluorescence: 20 mM phosphate pH 6.2, 50 mM NaCl, 50 mM L-Arg+L-Glu, 5 mM EDTA, 1 mM TCEP (temperature not stated); NMR: 20 mM phosphate pH 6.2, 50 mM NaCl, 50; conditions: protein: recombinant
His-ORF57 8-120 WT = His-ORF57 8-120 WT (Herpesvirus saimiri, UniProt P13199 8-120); assay: UV cross-linking; Fluorescence: 20 mM phosphate pH 6.2, 50 mM NaCl, 50 mM L-Arg+L-Glu, 5 mM EDTA, 1 mM TCEP (temperature not stated); NMR: 20 mM phosphate pH 6.2, 50 mM NaCl, 50; conditions: protein: recombinant; tags: His6; label: radioactive end label
[3] = biological target: ORF57 8-120;ALYREF 1-155 (REF2-I) (Herpesvirus saimiri;mouse, UniProt P13199;Q9JJW6 8-120;1-155, |); assay: intrinsic Trp fluorescence titration; RNA into preformed 1:1 ORF57-ALYREF complex, 10 uM; apparent macroscopic Kd; Fluorescence: 20 mM phosphate pH 6.2, 50 mM NaCl, 50 mM L-Arg+L-Glu, 5 mM EDTA, 1 mM TCEP (temperature not stated); NMR: 20 mM phosphate pH 6.2, 50 mM NaCl, 50; conditions: protein: recombinant;recombinant; tags: ;; copies: 1;1
ORF57 8-120;ALYREF 1-155 (REF2-I), sequence (P13199 8-120, chain 1 of 2): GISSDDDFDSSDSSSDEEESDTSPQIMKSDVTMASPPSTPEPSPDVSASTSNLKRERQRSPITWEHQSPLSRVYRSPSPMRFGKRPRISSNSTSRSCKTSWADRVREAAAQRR
ORF57 8-120;ALYREF 1-155 (REF2-I), sequence (Q9JJW6 1-155, chain 2 of 2): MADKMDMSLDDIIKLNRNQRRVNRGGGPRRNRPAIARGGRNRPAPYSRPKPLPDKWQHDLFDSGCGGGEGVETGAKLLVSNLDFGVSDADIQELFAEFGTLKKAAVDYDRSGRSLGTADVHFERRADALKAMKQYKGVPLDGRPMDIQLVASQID

T1 sequence (P13199 8-120): as the sequence (P13199 8-120, chain 1 of 2) above
His-ORF57 8-120 WT, sequence (P13199 8-120): as the sequence (P13199 8-120, chain 1 of 2) above

B1: 7merS (ssRNA)
RNA: GAAGAGG
B1: binds (ORF57 8-120 [1]).

B2: 7merN (ssRNA)
RNA: CAGUCGC
In the case of B2, the Kd (ORF57 8-120 [2]) is reported as 38.8 ± 0.6 µM.

B3: 7merS end-labeled (ssRNA)
RNA: GAAGAGG
B3: binds (His-ORF57 8-120 WT).

B4: 14merS (ssRNA)
RNA: CAGUCGCGAAGAGG
B4 showed a Kd (ORF57 8-120 [2]) of 7.57 ± 0.06 µM and a Kd [3] of 1.55 ± 0.24 µM.
